# Laboratory results reported in publication PMC5974088, “Structural basis for recognition of 53BP1 tandem Tudor domain by TIRR” (Nature Communications, 2018).
# B1: mouse TIRR (6-211) (domain or fragment, M. musculus)
# chain: GHMVPELKQISREEAMRLGPGWSHSCHAMLYAANPGQLFGRIPMRFSVLMQMRFDGLLGFPGGFVDRRFWSLEDGLNRVLGLGLGGLRLTEADYLSSHLTEGPHRVVAHLYARQLTLEQLHAVEISAVHSRDHGLEVLGLVRVPLYTQKDRVGGFPNFLSNAFVSTAKYQLLFALKVLNMMPSEKLAEALASATEKQKKALEKLLPPSS
# notes: overhang left after TEV cleavage, printed as Gly-His-Met; TIRR (Nudt16L1), M. musculus, residues 6-211; Homodimer by ultracentrifugation and in the crystal; also called Nudt16L1; source: E. coli BL21-Codon PLUS(DE3)-RIPL, purified (Ni-NTA, TEV, heparin, Superdex200); not shown: His6, N-terminal, cleaved
# Experiments:
# [1] = biological target: B1; assay: ITC; 200-400 μM 53BP1 Tudor domain (wt or mutant) injected into 200 μl of 22-44 μM TIRR or Nudt16 (wt or mutant); 25 °C; 20 mM Tris-HCl pH 7.5, 150 mM NaCl; single-site binding model; conditions: both partners purified
# [2] = biological target: B1; assay: AUC; sedimentation velocity (20 °C) and sedimentation equilibrium (16 °C); TIRR and 53BP1 Tudor premixed at 2:1 ratio; 20 mM Tris-HCl pH 7.5, 150 mM NaCl; conditions: both partners purified
# [3] = biological target: B1; assay: ITC; 200-400 μM 53BP1 Tudor domain (wt or mutant) injected into 200 μl of 22-44 μM TIRR or Nudt16 (wt or mutant); 25 °C; 20 mM Tris-HCl pH 7.5, 150 mM NaCl; single-site binding model; conditions: both partners purified; remark: listed apart in the source
# [4] = biological target: T1, human TIRR (6-211) (H. sapiens, UniProt Q9BRJ7 6-211); assay: as above; conditions: both partners purified
# T1 construct: overhang left after TEV cleavage, printed as Gly-His-Met; TIRR (Nudt16L1), H. sapiens, residues 6-211; also called Nudt16L1; source: E. coli BL21-Codon PLUS(DE3)-RIPL, purified (Ni-NTA, TEV, heparin, Superdex200); not shown: His6, N-terminal, cleaved
# [5] = biological target: B1; assay: AUC; sedimentation velocity, 20 °C; TIRR and 53BP1 Tudor assembled in equal molar ratio; 20 mM Tris-HCl pH 7.5, 150 mM NaCl; conditions: both partners purified
# [6] = biological target: B1; assay: ITC; 200-400 μM 53BP1 Tudor domain (wt or mutant) injected into 200 μl of 22-44 μM TIRR or Nudt16 (wt or mutant); 25 °C; 20 mM Tris-HCl pH 7.5, 150 mM NaCl; single-site binding model; conditions: both partners purified; remark: listed apart in the source
# [7] = biological target: the molecule itself; assay: AUC; TIRR alone; 20 mM Tris-HCl pH 7.5, 150 mM NaCl; dimer
# T1 sequence (Q9BRJ7 other isoform, or with tags, fused parts or gaps): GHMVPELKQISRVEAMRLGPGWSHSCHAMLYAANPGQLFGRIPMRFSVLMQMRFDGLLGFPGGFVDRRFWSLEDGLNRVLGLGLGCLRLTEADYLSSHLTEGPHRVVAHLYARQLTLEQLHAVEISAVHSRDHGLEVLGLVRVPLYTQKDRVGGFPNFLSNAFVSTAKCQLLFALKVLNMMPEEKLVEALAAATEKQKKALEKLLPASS
Binder,Kd [6] [µM],further results
"53BP1 tandem Tudor domain (1484-1603) (domain or fragment, H. sapiens, overhang left after TEV cleavage, printed as Gly-His-Met; 53BP1 tandem Tudor domain, H. sapiens, residues 1484-1603; also called 53BP1 Tudor; 53BP1-Tudor WT; source: E. coli BL21-Codon PLUS(DE3)-RIPL, purified (Ni-NTA, TEV, Superdex200); not shown: His6, N-terminal, cleaved) GHMNSFVGLRVVAKWSSNGYFYSGKITRDVGAGKYKLLFDDGYECDVLGKDILLCDPIPLDTEVTALSEDEYFSAGVVKGHRKESGELYYSIEKEGQRKWYKRMAVILSLEQGNRLREQYGLG",–,Kd [1]: 0.9 µM; stoichiometry N [2]: 0.5 53BP1 Tudor per TIRR (printed as TIRR/53BP1 Tudor 2:1); stoichiometry N [3]: 1; Kd [4]: 0.9 µM; stoichiometry N [5]: 1 53BP1 Tudor per TIRR (printed as 2:2)
"53BP1 Tudor D1521A (domain or fragment, H. sapiens, overhang left after TEV cleavage, printed as Gly-His-Met; 53BP1 tandem Tudor domain, H. sapiens, residues 1484-1603; source: E. coli BL21-Codon PLUS(DE3)-RIPL, purified as the wt protein; not shown: His6, N-terminal, cleaved) GHMNSFVGLRVVAKWSSNGYFYSGKITRDVGAGKYKLLFDAGYECDVLGKDILLCDPIPLDTEVTALSEDEYFSAGVVKGHRKESGELYYSIEKEGQRKWYKRMAVILSLEQGNRLREQYGLG",5.4,–
"53BP1 Tudor F1553A (domain or fragment, H. sapiens, overhang left after TEV cleavage, printed as Gly-His-Met; 53BP1 tandem Tudor domain, H. sapiens, residues 1484-1603; source: E. coli BL21-Codon PLUS(DE3)-RIPL, purified as the wt protein; not shown: His6, N-terminal, cleaved) GHMNSFVGLRVVAKWSSNGYFYSGKITRDVGAGKYKLLFDDGYECDVLGKDILLCDPIPLDTEVTALSEDEYASAGVVKGHRKESGELYYSIEKEGQRKWYKRMAVILSLEQGNRLREQYGLG",1.5,–
"53BP1 Tudor L1547A (domain or fragment, H. sapiens, overhang left after TEV cleavage, printed as Gly-His-Met; 53BP1 tandem Tudor domain, H. sapiens, residues 1484-1603; source: E. coli BL21-Codon PLUS(DE3)-RIPL, purified as the wt protein; not shown: His6, N-terminal, cleaved) GHMNSFVGLRVVAKWSSNGYFYSGKITRDVGAGKYKLLFDDGYECDVLGKDILLCDPIPLDTEVTAASEDEYFSAGVVKGHRKESGELYYSIEKEGQRKWYKRMAVILSLEQGNRLREQYGLG",4.7,–
"53BP1 Tudor L1547G (domain or fragment, H. sapiens, overhang left after TEV cleavage, printed as Gly-His-Met; 53BP1 tandem Tudor domain, H. sapiens, residues 1484-1603; source: E. coli BL21-Codon PLUS(DE3)-RIPL, purified as the wt protein; not shown: His6, N-terminal, cleaved) GHMNSFVGLRVVAKWSSNGYFYSGKITRDVGAGKYKLLFDDGYECDVLGKDILLCDPIPLDTEVTAGSEDEYFSAGVVKGHRKESGELYYSIEKEGQRKWYKRMAVILSLEQGNRLREQYGLG",17.3,–
"53BP1 Tudor W1495A (domain or fragment, H. sapiens, overhang left after TEV cleavage, printed as Gly-His-Met; 53BP1 tandem Tudor domain, H. sapiens, residues 1484-1603; source: E. coli BL21-Codon PLUS(DE3)-RIPL, purified as the wt protein; not shown: His6, N-terminal, cleaved) GHMNSFVGLRVVAKASSNGYFYSGKITRDVGAGKYKLLFDDGYECDVLGKDILLCDPIPLDTEVTALSEDEYFSAGVVKGHRKESGELYYSIEKEGQRKWYKRMAVILSLEQGNRLREQYGLG",15.4,–
"53BP1 Tudor Y1500A (domain or fragment, H. sapiens, overhang left after TEV cleavage, printed as Gly-His-Met; 53BP1 tandem Tudor domain, H. sapiens, residues 1484-1603; source: E. coli BL21-Codon PLUS(DE3)-RIPL, purified as the wt protein; not shown: His6, N-terminal, cleaved) GHMNSFVGLRVVAKWSSNGAFYSGKITRDVGAGKYKLLFDDGYECDVLGKDILLCDPIPLDTEVTALSEDEYFSAGVVKGHRKESGELYYSIEKEGQRKWYKRMAVILSLEQGNRLREQYGLG",12.7,–
"53BP1 Tudor Y1523A (domain or fragment, H. sapiens, overhang left after TEV cleavage, printed as Gly-His-Met; 53BP1 tandem Tudor domain, H. sapiens, residues 1484-1603; source: E. coli BL21-Codon PLUS(DE3)-RIPL, purified as the wt protein; not shown: His6, N-terminal, cleaved) GHMNSFVGLRVVAKWSSNGYFYSGKITRDVGAGKYKLLFDDGAECDVLGKDILLCDPIPLDTEVTALSEDEYFSAGVVKGHRKESGELYYSIEKEGQRKWYKRMAVILSLEQGNRLREQYGLG",28.5,–
"53BP1 Tudor-UDR domain (1484-1631) (domain or fragment, H. sapiens, overhang left after TEV cleavage, printed as Gly-His-Met; 53BP1 Tudor-UDR domain, H. sapiens, residues 1484-1631; source: E. coli BL21-Codon PLUS(DE3)-RIPL, purified (Ni-NTA, TEV, Superdex200); not shown: His6, N-terminal, cleaved) GHMNSFVGLRVVAKWSSNGYFYSGKITRDVGAGKYKLLFDDGYECDVLGKDILLCDPIPLDTEVTALSEDEYFSAGVVKGHRKESGELYYSIEKEGQRKWYKRMAVILSLEQGNRLREQYGLGPYEAVTPLTKAADISLDNLVEGKRKRRS",–,Kd [3]: 0.9 µM
B1,–,stoichiometry N [7]: 2
